# Measurements reported in patent US20160114035A1 (published 2016).
# Where two headings read alike, the source gives them in different places.
# What was measured:
# Test in all cases: binding to purified HLA
# [1] = target: DRB1*0802
# [2] = target: DRB1*1501
# [3] = target: DRB1*1302
# [4] = target: DRB1*0701
# [5] = target: DRB1*0401
# [6] = target: DRB1*0101
# [7] = target: DRB4*0101
# [8] = target: DRB1*0901
# [9] = target: DRB1*0404
# [10] = target: DRB1*1101
# [11] = target: DRB5*0101
# [12] = target: DRB1*0301
# [13] = target: DRB1*0405
# [14] = target: DRB1*0802; remark: listed apart in the source
# [15] = target: DRB1*1501; remark: listed apart in the source
# [16] = target: DRB1*1302; remark: listed apart in the source
# [17] = target: DRB1*0701; remark: listed apart in the source
# [18] = target: DRB1*0401; remark: listed apart in the source
# [19] = target: DRB1*0101; remark: listed apart in the source
# [20] = target: DRB4*0101; remark: listed apart in the source
# [21] = target: DRB1*0901; remark: listed apart in the source
# [22] = target: DRB1*0404; remark: listed apart in the source
# [23] = target: DRB1*1101; remark: listed apart in the source
# [24] = target: DRB5*0101; remark: listed apart in the source
# [25] = target: DRB1*0301; remark: listed apart in the source
# [26] = target: DRB1*0405; remark: listed apart in the source
Binder,IC50 [1] [nM],IC50 [2] [nM],IC50 [3] [nM],IC50 [4] [nM],IC50 [5] [nM],IC50 [6] [nM],IC50 [7] [nM],IC50 [8] [nM],IC50 [9] [nM],IC50 [10] [nM],IC50 [11] [nM],IC50 [12] [nM],IC50 [13] [nM],IC50 [14] [nM],IC50 [15] [nM],IC50 [16] [nM],IC50 [17] [nM],IC50 [18] [nM],IC50 [19] [nM],IC50 [20] [nM],also measured
AAAWFVAANTLHAAA [W4.N9.H12],8.6,101,38,43,2.9,3.8,606,33,5.5,16,22,174,21,–,–,–,–,–,–,–,–
AAAKFVAAWTLKAAA [SEQ ID NO: 4],5.2,9.8,648,49,2.6,3.3,207,28,2.9,11,5.4,209,25,–,–,–,–,–,–,–,–
AAAHFVAAWTLHAAA [H4.H12],9.3,12,1190,53,2.5,4.2,267,21,2.5,14,23,198,12,–,–,–,–,–,–,–,–
AAAYFVAANTLHAAA [Y4.N9.H12],12,53,54,49,3.3,4.5,703,21,5.2,14,16,130,13,–,–,–,–,–,–,–,–
AAAYFVAAFTLHAAA [Y4.F9.H12],5.9,16,2560,78,1,3.4,81,13,0.67,17,18,126,4.4,–,–,–,–,–,–,–,–
AAAHFVAAFTLKAEA [H4.F9.E14],–,–,–,–,–,–,–,–,–,–,–,–,–,19,31,801,49,6.4,6.8,526,IC50 [21]: 46 nM; IC50 [22]: 8.1 nM; IC50 [23]: 41 nM; IC50 [24]: 19 nM; IC50 [25]: 855 nM; IC50 [26]: 8.1 nM
AAAFFVAANTLKADA [F4.N9.D14],16,103,187,74,4,3.4,5520,18,4.5,46,4.4,140,9.5,–,–,–,–,–,–,–,–
AAANFVAAYTLHAAA [N4.Y9.H12],–,–,–,–,–,–,–,–,–,–,–,–,–,7.5,4.2,1420,67,1.8,2.7,567,IC50 [21]: 25 nM; IC50 [22]: 5.2 nM; IC50 [23]: 16 nM; IC50 [24]: 20 nM; IC50 [25]: 171 nM; IC50 [26]: 19 nM
AAAFFVAANTLHAAA [F4.N9.H12],28,70,64,82,3.8,6.5,876,31,4.1,42,26,286,27,–,–,–,–,–,–,–,–
AAAEFVAAYTLHAAA [E4.Y9.H12],–,–,–,–,–,–,–,–,–,–,–,–,–,13,6.9,1450,161,2.3,3.9,448,IC50 [21]: 28 nM; IC50 [22]: 3.2 nM; IC50 [23]: 27 nM; IC50 [24]: 52 nM; IC50 [25]: 144 nM; IC50 [26]: 17 nM
AAAYFVAAWTLHAAA [Y4.H12],9.7,16,1560,55,2.6,3.7,279,18,2.6,18,15,119,6.9,–,–,–,–,–,–,–,–
AAAEFVAAWTLHAAA [E4.H12],–,–,–,–,–,–,–,–,–,–,–,–,–,24,51,1150,97,3.1,5.1,350,IC50 [21]: 44 nM; IC50 [22]: 4.1 nM; IC50 [23]: 38 nM; IC50 [24]: 48 nM; IC50 [25]: 134 nM; IC50 [26]: 27 nM
AAAHFVAANTLHAAA [H4.N9.H12],–,–,–,–,–,–,–,–,–,–,–,–,–,17,79,47,76,4.5,4.1,862,IC50 [21]: 37 nM; IC50 [22]: 6.8 nM; IC50 [23]: 22 nM; IC50 [24]: 33 nM; IC50 [25]: 361 nM; IC50 [26]: 18 nM
